The target in assay [1] is N-formyl-methionyl-leucyl-phenylalanine (fMLF) receptor on elicited rat peritoneal neutrophils (rat) (UniProt D4A7Q2). The experiment in a line: cell-based or functional assay.
Assay [2] has the same target. The experiment in a line: competition with 6 nM 3H-fMLF for binding to elicited rat peritoneal neutrophils, 4 C, filter harvest.
Assay [3] concerns the target N-formyl-methionyl-leucyl-phenylalanine (fMLF) receptor on human neutrophils (human) (UniProt P21462). The experiment in a line: competition with 6 nM 3H-fMLF for binding to human neutrophils.
The target in assay [4] is N-formyl-methionyl-leucyl-phenylalanine (fMLF) receptor on elicited rat peritoneal neutrophils (rat) (UniProt D4A7Q2). The assay can be described thus: Scatchard analysis of 3H-fMLF saturation binding to elicited rat peritoneal neutrophils.
Assay [5] has the same target. The experiment in a line: Scatchard transformation of the 3H-fMLF binding isotherm on elicited rat peritoneal neutrophils.
For assay [6] the target is unchanged. The experiment in a line: saturation binding of 3H-fMLF to elicited rat peritoneal neutrophils, one-site fit (Prism).
The target of assay [7] is T1, N-formyl-methionyl-leucyl-phenylalanine (fMLF) receptor on elicited rat peritoneal neutrophils (rat, UniProt D4A7Q2 1-355).
T1 construct: Native receptor on whole neutrophils (PMNs); also called Rat FPR; formyl peptide receptor
T1 sequence: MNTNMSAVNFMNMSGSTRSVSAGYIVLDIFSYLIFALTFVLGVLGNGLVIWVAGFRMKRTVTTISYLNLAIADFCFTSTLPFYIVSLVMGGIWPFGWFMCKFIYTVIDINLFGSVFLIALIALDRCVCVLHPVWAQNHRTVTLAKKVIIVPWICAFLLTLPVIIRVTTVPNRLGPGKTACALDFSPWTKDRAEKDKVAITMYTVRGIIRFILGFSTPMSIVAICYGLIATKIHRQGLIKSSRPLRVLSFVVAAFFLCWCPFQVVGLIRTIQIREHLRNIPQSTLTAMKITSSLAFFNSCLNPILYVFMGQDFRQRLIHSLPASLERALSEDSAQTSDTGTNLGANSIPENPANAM
The experiment in a line: competition with 6 nM 3H-fMLF for binding to elicited rat peritoneal neutrophils, 4 C, filter harvest. The protocol:
(§1) Neutrophils isolated by peritoneal lavage were washed twice with 1 mL of HBSS− (without calcium chloride, magnesium chloride and magnesium sulfate) and centrifuged for ten minutes at 2000 rpms following each wash. PMNs utilized in functional assays were centrifuged at 25° C. while those used in binding assays were centrifuged at 4° C. to prevent internalization. A cold H_2O RBC lysis was then performed with the addition of 9 mL of sterile ice-cold H_2O and 1 mL of phosphate buffered saline (PBS) solution containing 0.1 M phosphate buffer, 0.027 M KCl and 1.37 M NaCl following resuspension of the sample in 1 mL of HBSS−. Centrifugation was subsequently performed for ten minutes at 1600 rpms. White blood cell (WBC) differential stain containing saline, 2% acidic acid and phenol violet dye was used to identify the neutrophil population and trypan blue exclusion was used to determine viability of cells.
(§2) Total binding in the competition assays was assessed in the presence of 1.0 ×10^6 PMNs per sample while non-specific binding was determined in the absence of cells. Each condition was performed in quadruplicate.

Assay [8] deals with T1, N-formyl-methionyl-leucyl-phenylalanine …. The experiment in a line: competition with 6 nM 3H-fMLF on elicited rat neutrophils. On the procedure:
as §1, §2

For assay [9], the target named is T2, N-formyl-methionyl-leucyl-phenylalanine (fMLF) receptor on human neutrophils (human, UniProt P21462 1-350).
T2 construct: whole, on cells; Native receptor on whole neutrophils from healthy volunteers; also called Human FPR; formyl peptide receptor
T2 sequence (looked up): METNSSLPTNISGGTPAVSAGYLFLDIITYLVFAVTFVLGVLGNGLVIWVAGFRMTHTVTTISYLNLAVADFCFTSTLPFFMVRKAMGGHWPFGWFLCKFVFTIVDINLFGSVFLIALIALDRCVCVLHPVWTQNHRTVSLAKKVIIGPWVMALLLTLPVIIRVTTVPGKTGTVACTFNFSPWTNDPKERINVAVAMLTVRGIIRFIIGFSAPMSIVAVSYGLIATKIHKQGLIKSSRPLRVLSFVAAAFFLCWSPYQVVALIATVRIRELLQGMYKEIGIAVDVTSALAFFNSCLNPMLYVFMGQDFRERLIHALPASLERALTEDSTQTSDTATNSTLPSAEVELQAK
The experiment in a line: competition with 6 nM 3H-fMLF for binding to human neutrophils.

The target of assay [10] is T1, N-formyl-methionyl-leucyl-phenylalanine …. The experiment in a line: cell-based or functional assay.

Square brackets hold non-standard residues; d marks the D form. Ends that are not written are not given here. * marks the point of attachment. dimethylgly‑t‑butylgly‑cys‑gly = CN(C)CC(=O)N[C@H](C(=O)N[C@@H](CS)C(=O)NCC(=O)*)C(C)(C)C; Cyclopropanecarbonyl = O=C(C1CC1)*; Nle = CCCC[C@H](N)C(=O)O; For = O=C*

As a reminder, the IC50 is the concentration needed to halve the response being measured. A word on the Kd: it is the constant that tells how readily two partners part at equilibrium.

2-quinoxazoyl-NleLFK (peptide): in [1], the % Control MPO Release (10 uM capping group + 0.1 uM fMLF) is 240 % control; the % Control MPO release (1 uM capping group + 0.1 uM fMLF) worked out at 323 % control; the MPO release, % Control (1 uM) is 117 % control; the MPO release, % Control (10 uM) was determined as 130 % control.
As to furoyl-NleLFK (peptide), in assay [1], the MPO release, % Control (1 uM) is 93 % control and the MPO release, % Control (10 uM) is 102 % control.
In the same order, the values of 2-methoxyacetyl-NleLFK (peptide) are 95 % control and 97.1 % control.
On to adamantylcarbonyl-NleLFK (peptide), for which, in assay [1], the % Control MPO Release (10 uM capping group + 0.1 uM fMLF) was determined as 129 % control; the % Control MPO release (1 uM capping group + 0.1 uM fMLF) was 132 % control; the MPO release, % Control (1 uM) amounted to 70.5 % control; the MPO release, % Control (10 uM) is 71.7 % control.
For the molecule “fluorenylmethylcarbonyl-NleLFK (peptide)”, in assay [1], the % Control MPO Release (10 uM capping group + 0.1 uM fMLF) stood at 109 % control; the % Control MPO release (1 uM capping group + 0.1 uM fMLF) worked out at 162 % control; the MPO release, % Control (1 uM) amounted to 84.1 % control; the MPO release, % Control (10 uM) stood at 59.9 % control.
In assay [2], “N-tert-butyloxycarbonylated-methionyl-leucyl-phenylalanine (peptide)” returned an IC50 of 9300 nM. This counts as single-digit micromolar.
In [1], “2-acetamido-5-thiazolesulfonyl-NleLFK (peptide)” came in with an MPO release, % Control (1 uM) of 118 % control and an MPO release, % Control (10 uM) of 176 % control.
Turning to 3-but-1-enoxycarbonyl-NleLFK (peptide), in assay [1], the MPO release, % Control (1 uM) was 134 % control and the MPO release, % Control (10 uM) is 229 % control.
The like results for trans-cinnamoyl-NleLFK (peptide) were, in that order, 133 % control and 196 % control.
For N,N-diphenylcarbamoyl-NleLFK (peptide), in [1], the % Control MPO Release (10 uM capping group + 0.1 uM fMLF) was 186 % control; the % Control MPO release (1 uM capping group + 0.1 uM fMLF) stood at 322 % control; the MPO release, % Control (1 uM) was found to be 143 % control; the MPO release, % Control (10 uM) amounted to 125 % control.
For the molecule “N-formyl-methionyl-leucyl-phenylalanine (peptide)”, the IC50 in [3] came out at 5 nM; in assay [2], 50 nM. Further, the Kd in assay [4] was 6.4 nM; in [6], 6.1 nM. In assay [4], this molecule came in with a binding sites per cell (binding sites per cell) of 41000. The x-intercept of Scatchard transformation in assay [5] was 34. In assay [1], this molecule showed an EC50 of myeloperoxidase release from elicited rat PMNs of 110 nM. This molecule also came in with a Binding Sites/Cell (binding sites/cell) in [6] of 40000.
As for phenylthioacetyl-NleLFK (peptide), in assay [1], the MPO release, % Control (1 uM) was 139 % control and the MPO release, % Control (10 uM) amounted to 120 % control.
Turning to N,N-diethylcarbamoyl-NleLFK (peptide), in assay [1], the % Control MPO Release (10 uM capping group + 0.1 uM fMLF) was 250 % control; the % Control MPO release (1 uM capping group + 0.1 uM fMLF) worked out at 283 % control; the MPO release, % Control (1 uM) was 114 % control; the MPO release, % Control (10 uM) was determined as 110 % control.
With cyclopropylcarbonyl-NleLFK (peptide), in assay [1], the MPO release, % Control (1 uM) came out at 108 % control and the MPO release, % Control (10 uM) was found to be 91.8 % control.
For “N-phenyl-N-methylcarbamoyl-NleLFK (peptide)”, in assay [1], the % Control MPO Release (10 uM capping group + 0.1 uM fMLF) came to 121 % control; the % Control MPO release (1 uM capping group + 0.1 uM fMLF) is 171 % control; the MPO release, % Control (1 uM) turned out to be 94.7 % control; the MPO release, % Control (10 uM) worked out at 68 % control.

B1: ReO-CyclopropylCONH-nleu-leu-phe-trp-his-lys(dimethylgly-t-butylgly-cys-gly)-gly-OH (peptide)
peptide: Cyclopropanecarbonyl-[Nle]LFWHK(dimethylgly‑t‑butylgly‑cys‑gly)G-OH
modifications: also: ReO (rhenium oxo) complex with Lys6 side-chain chelator
notes: Rhenium complex as tested; also called ReORP553 17-04; RP553-17-04
Consider B1, for which, in assay [7], the IC50 is 1770 nM. Further, the “fold more potent than N-t-BocMLF” value in [8] is at least 1.5 fold.

B2: ReO-CyclopropylCONH-nleu-leu-phe-trp-lys-lys(dimethylgly-t-butylgly-cys-gly)-gly-OH (peptide)
peptide: Cyclopropanecarbonyl-[Nle]LFWKK(dimethylgly‑t‑butylgly‑cys‑gly)G-OH
modifications: also: ReO (rhenium oxo) complex with Lys6 side-chain chelator
notes: Rhenium complex as tested; also called ReORP553 17-07; RP553-17-07
B2: in assay [7], the IC50 amounted to 760 nM. For the same molecule, in assay [8], the “fold more potent than N-t-BocMLF” value is at least 1.5 fold.

B3: ReO-CyclopropylCONH-nleu-leu-phe-ser-glu-lys(dimethylgly-t-butylgly-cys-gly)-gly-OH (peptide)
peptide: Cyclopropanecarbonyl-[Nle]LFSEKG-OH
modifications: not fully specified (residue 6); printed as ReO-CyclopropylCONH-nleu-leu-phe-ser-glu-lys(dimethylgly-t-butylgly-cys-gly)-gly-OH; also: ReO (rhenium oxo) complex on the side-chain chelate
notes: Rhenium complex as tested; also called ReORP553 17-02; RP553-17-02
B3 displayed an IC50 in [7] of 2310 nM. Further, the “fold more potent than N-t-BocMLF” value in [8] is at least 1.5 fold.

B4: ReO-CyclopropylCONH-nleu-leu-phe-tyr-lys-lys(dimethylgly-t-butylgly-cys-gly)-gly-OH (peptide)
peptide: Cyclopropanecarbonyl-[Nle]LFYKK(dimethylgly‑t‑butylgly‑cys‑gly)G-OH
modifications: also: ReO (rhenium oxo) complex with Lys6 side-chain chelator
notes: Rhenium complex as tested; also called ReORP553 17-09; RP553-17-09
With B4, the IC50 in [7] came out at 5930 nM. Further, the “fold more potent than N-t-BocMLF” value in [8] was at least 1.5 fold.

B5: ReO-CyclopropylCONH-nleu-leu-phe-tyr-his-lys(dimethylgly-t-butylgly-cys-gly)-gly-OH (peptide)
peptide: Cyclopropanecarbonyl-[Nle]LFYHK(dimethylgly‑t‑butylgly‑cys‑gly)G-OH
modifications: also: ReO (rhenium oxo) complex with Lys6 side-chain chelator
notes: Rhenium complex as tested; also called ReORP553 17-06; RP553-17-06
In turn, B5 came in with an IC50 in assay [7] of 1220 nM. Moreover, the “fold more potent than N-t-BocMLF” value in [8] was at least 1.5 fold.

B6: ReO-CyclopropylCONH-nleu-leu-phe-trp-glu-lys(dimethylgly-t-butylgly-cys-gly)-gly-OH (peptide)
peptide: Cyclopropanecarbonyl-[Nle]LFWEK(dimethylgly‑t‑butylgly‑cys‑gly)G-OH
modifications: also: ReO (rhenium oxo) complex with Lys6 side-chain chelator
notes: Rhenium complex as tested; also called ReORP553 17-01; RP553-17-01
In assay [9], B6 registered an IC50 of 140 nM. The molecule further showed a concentration for half-maximal inhibition (IC50) in assay [7] of 730 nM. In addition, in assay [8], the “fold greater binding affinity than N-t-BocMLF” value was about 12 fold, the “fold less binding affinity than fMLF” value is about 15 fold and the “fold more potent than N-t-BocMLF” value is at least 1.5 fold.

B7: ReO-CyclopropylCONH-nleu-leu-phe-ser-lys-lys(dimethylgly-t-butylgly-cys-gly)-gly-OH (peptide)
peptide: Cyclopropanecarbonyl-[Nle]LFSKK(dimethylgly‑t‑butylgly‑cys‑gly)G-OH
modifications: also: ReO (rhenium oxo) complex with Lys6 side-chain chelator
notes: Rhenium complex as tested; also called ReORP553 17-08; RP553-17-08
Take B7: in assay [7], the IC50 is 4950 nM. Further, the “fold more potent than N-t-BocMLF” value in assay [8] was at least 1.5 fold.

B8: ReO-CyclopropylCONH-nleu-leu-phe-ser-his-lys(dimethylgly-t-butylgly-cys-gly)-gly-OH (peptide)
peptide: Cyclopropanecarbonyl-[Nle]LFSHK(dimethylgly‑t‑butylgly‑cys‑gly)G-OH
modifications: also: ReO (rhenium oxo) complex with Lys6 side-chain chelator
notes: Rhenium complex as tested; also called ReORP553 17-05; RP553-17-05
B8 returned an IC50 in [7] of 1010 nM. The “fold more potent than N-t-BocMLF” value in assay [8] is at least 1.5 fold.
In the case of For-MLFK [N-formyl-methionyl-leucyl-phenylalanyl-lysine], the “EC50 of myeloperoxidase release from elicited rat PMNs” value in [10] worked out at 140 nM.
